Paper PMC2824085

Key:
[1] = biological target: monomeric carbohydrate-recognition domain (CRD) from DC-SIGN (UniProt Q9NNX6); assay: SPR; BiaCore 3000, CM5 chip; CRD of DC-SIGN immobilised, glycopeptide from SBA in the fluid phase; steady state; 10 mM Hepes, 150 mM NaCl, 5 mM CaCl2, 0.005% P20, pH 7.4, 25 °C
[2] = biological target: monomeric carbohydrate-recognition domain (CRD) from DC-SIGN (UniProt Q9NNX6); assay: radioligand binding; competition: CRD of DC-SIGN immobilised on polystyrene wells, 125I-labeled mannose-BSA as reporter ligand, competing ligand titrated; KI = concentration for 50% inhibition
[3] = biological target: trimeric extracellular domain (ECD) of rat macrophage galactose lectin (MGL) (rat) (UniProt P49301); assay: radioligand binding; competition: CRD or ECD of MGL coated on polystyrene wells, 125I-labeled Gal-BSA as reporter ligand, competing ligand titrated; KI = concentration for 50% inhibition
[4] = biological target: monomeric carbohydrate-recognition domain (CRD) of rat macrophage galactose lectin (MGL) (rat) (UniProt P49301); assay: as above
[5] = biological target: Man9GlcNAc2 glycopeptide isolated from soybean agglutinin (soybean); assay: SPR; BiaCore 3000, CM5 chip; SBA or its glycopeptide amine-coupled, monomeric CRD of DC-SIGN flowed over; steady state, simple saturation model with linear background; 10 mM Hepes, 150 mM NaCl, 5 mM CaCl2, 0.005% P20, pH 7.4, 25 °C

Chain of trimeric extracellular domain (ECD) of rat macrophage galactose lectin (MGL) (rat) (P49301 59-306, tags left off): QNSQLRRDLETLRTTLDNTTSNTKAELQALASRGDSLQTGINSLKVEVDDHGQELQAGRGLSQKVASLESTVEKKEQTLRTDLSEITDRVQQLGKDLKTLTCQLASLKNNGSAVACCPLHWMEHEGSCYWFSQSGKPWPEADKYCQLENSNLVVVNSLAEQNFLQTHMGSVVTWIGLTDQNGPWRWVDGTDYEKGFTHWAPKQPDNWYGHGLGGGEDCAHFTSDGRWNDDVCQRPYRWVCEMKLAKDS
Chain of monomeric carbohydrate-recognition domain (CRD) of rat macrophage galactose lectin (MGL) (rat) (P49301 165-306): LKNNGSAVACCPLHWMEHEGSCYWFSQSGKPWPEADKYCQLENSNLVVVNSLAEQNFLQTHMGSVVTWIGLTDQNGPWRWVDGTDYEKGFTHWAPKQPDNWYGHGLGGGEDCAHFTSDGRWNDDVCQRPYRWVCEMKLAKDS
Chain of monomeric carbohydrate-recognition domain (CRD) from DC-SIGN (Q9NNX6 250-404): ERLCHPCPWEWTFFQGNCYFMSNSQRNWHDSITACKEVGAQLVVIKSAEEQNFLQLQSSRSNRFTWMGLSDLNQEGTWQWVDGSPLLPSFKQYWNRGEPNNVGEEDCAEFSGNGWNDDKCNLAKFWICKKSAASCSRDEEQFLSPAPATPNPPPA

Substance | Kd [1] [µM] | Ki [2] [µM] | Ki [3] [nM] | Ki [4] [nM] | fold lower affinity than for intact SBA [5] [fold]
Man9GlcNAc2 glycopeptide isolated from soybean agglutinin | 76 | 68 | – | – | –
asialo-orosomucoid OR-5 (five glycosylation sites, expressed in Chinese hamster ovary cells) (from UniProt P02763 19-201) (natural protein) | – | – | 650 | 1400 | –
asialo-orosomucoid derived from human blood (from UniProt P02763 19-201) (natural protein) | – | – | 180 | 120 | –

Now from value to substance:

Kd [1] [µM] | Ki [2] [µM] | Ki [3] [nM] | Ki [4] [nM] | fold lower affinity than for intact SBA [5] [fold] | Substance
– | – | 160000 | 260000 | – | desialylated tri-antennary glycopeptide isolated from fetuin
– | – | – | – | 15 | monomeric carbohydrate-recognition domain (CRD) from DC-SIGN (from UniProt Q9NNX6 250-404) (domain or fragment)
